Measurements from a protein production outcome set (Wang et al. 2014).

Experiment: label from the status in PepcDB records

| Sequence | protein production |
| --- | --- |
| MGSSHHHHHHENLYFQGSNIAFYVVSDVHGYIFPTDFTSRNQYQPMGLLLANHVIEQDRRQYDQSFKIDNGDFLQGSPFCNYLIAHSGSSQPLVDFYNRMAFDFGTLGNHEFNYGLPYLKDTLRRLNYPVLCANIYENDSTLTDNGVKYFQVGDQTVGVIGLTTQFIPHWEQPEHIQSLTFHSAFEILQQYLPEMKRHADIIVVCYHGGFEKDLESGTPTEVLTGENEGYAMLEAFSKDIDIFITGHQHRQIAERFKQTAVIQPGTRGTTVGRVVLSTDEYENLSVESCELLPVIDDSTFTIDEDDQHLRKQLEDWLDYEITTLPYDMTINHAFEARVAPHPFTNFMNYALLEKSDADVACTALFDSASGFKQVVTMRDVINNYPFPNTFKVLAVSGAKLKEAIERSAEYFDVKNDEVSVSADFLEPKPQHFNYDIYGGVSYTIHVGRPKGQRVSNMMIQGHAVDLKQTYTICVNNYRAVGGGQYDMYIDAPVVKDIQVEGAQLLIDFLSNNNLMRIPQVVDFKVEK | not failed |
| ALSDGVHKIEFEHGTTSGKRVVYVDGKEEIRKEWMFKLVGKETFYVGAAKTKATINIDAISGFAYEYTLEINGKSLKKYMEDRSKTTNTWVLHMDGENFRIVLEKDAMDVWCNGKKLETAGEFVDDGTETHFSIGNHDCYIKAVSSGKRKEGIIHTLIVDNREIPEIAS | failed |
| MGFLQPRLPDIDLAEWSQGSRSQKIRPMAQHWAEVGFGTPVLLHLFYVAKILLYVLVGWLIVLTTKGIDGFTDAAAWYAEPIVFEKVVLYTMLFEVIGLGCGFGPLNNRFFPPMGSILYWMRFGTIRLPPWPDRVPWTRGTKRKPVDVALYALLVMMLLSALFTDGAGPIPELGTTVGLLPAWQIVLILLLLGVLGLRDKVIFLAARGEVYATLTVTFLFGRLNGIDMIVAAKLVFLVIWIGAATSKLNRHFPFVISTMMSNNPLFRPRFIKRMFFKKFPGDLRPGLLSRIVAHVSTVIEMCVPVVLFVAHGGWPTVVAATIMVCFHLGILTAIPMGVPLEWNVFMIFGVLSLFVGHACLGLADVKNPVPLAILIAVVAGIVIAGNVFPRKISFLAAMRYYAGNWDTTLWCIKPSAEDKINRGIVAIASMPAAQLERFYGKDRAQIPMYLGYAFRAMNSHGRALFTLAHRAMAGHDEDDYVITDGERVCSTAVGWNFGDGHLHNEQLIAAMQQRCGFQPGEVRVVLLDAQPIHRQTQEYRLVDAATGEFERGYVRVADMVNRQPWDDDVPVHVLPG | failed |
| MVQFQNTLIKFHALSFKNANLIYNAKLNKTCYKENSNTIILRIKMLTQEDVLNALKTIIYPNFEKDIVSFGFVKNITLHDDQLGLLIEIPSSSEETSAILRENISKAMQEKGVKALNLDIKTPPKPQAPKPTTKNLAKNIKHVVMISSGKGGVGKSTTSVNLSIALANLNQKVGLLDADVYGPNIPRMMGLQSADVIMDPSGKKLIPLKAFGVSVMSMGLLYDEGQSLIWRGPMLMRAIEQMLSDIIWGDLDVLVVDMPPGTGDAQLTLAQAVPLSAGITVTTPQIVSLDDAKRSLDMFKKLHIPIAGIVENMGSFVCEHCKKESEIFGSNSMSELLEAYHTQILAKLPLEPKVRLGGDRGEPIVISHPNSVSAKIFEKMAQDLSAFLERVKKEKLADNKDIQPTQTHACSH | failed |
| MSLFKRSVVSEITSHAGVVFSTLVVVWLSVLLVRLLGEAAGGSIGADVVLGLAAFSTITALPTILAVSLFIAVLTTVTRNYRESEMVVWFASGLSLADWLRPVARVAVPIAMLVAALTLVASPWAYRQIGEYRERFEQRSDLSKVTAGQFAESGRGDRVFFAEDPVRPGDELGAVFARSIDPEWLSVLTASNARSETLPNGDRFLVLGEGHRYDLKPGTPEIRLVNFDQYGVRLESKAGEDPMAEARAAAERFSKARSTMQLVQDNTDSSWSQIMWRVAMPLAALNLALLAIPLGAVNPRLGRSGDLLIAGLVGLLYMNMINLSRAWISSGKISFSIGVWAVHAVVALLAAYLLMRRLRVKAPRNAGRGA | failed |
| MKGVRSMMGNLVITIGRECGSAGRLIGQKLAADLGVKCYDKELLTLAAKNSGLCEELFKTHDEKPTSSFLYSLVMDTYSLGYNTSAYMDMPINHKIFLAQFDTIKKLAEEESCVIVGRCADYALADYPNTVSVFICGDEEDKIRHLMERHNVDEAKAKDIMIKTDKRRASYYNYYSSKRWGSCKSYDMCISSSAVGYDGAVDIIKEFAKKKQEFLKTKNYK | not failed |
| MERKKLIAKFVEIASEKMGKDLETVDEENTFKELGFDSIDVIDLVMFFEDEFALRIEDEEISKIRKVKDLIDIVIKKLEEIDDEVSEG | not failed |
| MGELIYGEVKKQTKDGFIIDLGDNAEAYLAREEMIAKEILRPKQRMNAILYSVNREGRGAQLLLSRARPEMLMALMKKEIPLEHHHHHH | failed |
